Experimental data as given in article PMC10977697 (PLOS ONE, 2024).

Assays:
[1] = biological target: T1, Notch2Long (Notch2 EGF6-EGF12) (human, UniProt Q04721 219-418, biotin on the N-terminal Avi tag (enzymatic)); test: SPR; conditions: both partners purified
T1 construct: also called N2L protein; hNotch2; not shown: Avi tag, N-terminal, kept
T1 sequence (looked up): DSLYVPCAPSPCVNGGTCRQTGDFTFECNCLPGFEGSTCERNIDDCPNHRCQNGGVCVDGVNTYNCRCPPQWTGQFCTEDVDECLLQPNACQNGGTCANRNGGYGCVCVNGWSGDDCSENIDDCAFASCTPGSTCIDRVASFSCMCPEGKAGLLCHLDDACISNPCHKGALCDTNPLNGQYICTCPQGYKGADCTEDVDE

[2] = biological target: T1, Notch2Long (Notch2 EGF6-EGF12); test: ELISA; conditions: one partner purified
[3] = biological target: T2, HtrA1 (human, UniProt Q92743 23-480, biotin on lysines (Sulfo-NHS-LC-biotin) for panning and SPR); test: SPR; conditions: both partners purified
T2 construct: also called HtrA1 FL; human full-length HtrA1
T2 sequence (Q92743 23-480): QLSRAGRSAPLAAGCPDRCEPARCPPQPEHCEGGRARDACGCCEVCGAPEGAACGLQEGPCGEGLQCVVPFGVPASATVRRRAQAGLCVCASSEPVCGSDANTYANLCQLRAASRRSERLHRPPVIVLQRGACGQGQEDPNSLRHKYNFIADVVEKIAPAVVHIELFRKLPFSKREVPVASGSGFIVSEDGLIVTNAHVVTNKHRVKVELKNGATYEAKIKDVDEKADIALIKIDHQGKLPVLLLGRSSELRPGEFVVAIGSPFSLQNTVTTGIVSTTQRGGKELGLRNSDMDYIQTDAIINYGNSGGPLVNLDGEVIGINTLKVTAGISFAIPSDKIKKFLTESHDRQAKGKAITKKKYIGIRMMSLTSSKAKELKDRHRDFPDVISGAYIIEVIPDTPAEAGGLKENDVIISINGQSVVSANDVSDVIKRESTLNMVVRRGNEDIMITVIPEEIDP

[4] = biological target: T1, Notch2Long (Notch2 EGF6-EGF12); test: SPR; conditions: both partners purified; remark: listed apart in the source
[5] = biological target: T3, N2N-AVR-19; test: SPR; conditions: both partners purified
T3 construct: AVR9 scaffold; source: synthetic peptide, folded in vitro

[6] = biological target: T4, N2N-AVR-n6; test: SPR; conditions: both partners purified
T4 construct: AVR9 scaffold; source: synthetic peptide, folded in vitro

[7] = biological target: Her3-Fc Avi-tag (UniProt P21860 20-643); test: SPR; conditions: both partners purified
Sequence of Her3-Fc Avi-tag (P21860 20-643): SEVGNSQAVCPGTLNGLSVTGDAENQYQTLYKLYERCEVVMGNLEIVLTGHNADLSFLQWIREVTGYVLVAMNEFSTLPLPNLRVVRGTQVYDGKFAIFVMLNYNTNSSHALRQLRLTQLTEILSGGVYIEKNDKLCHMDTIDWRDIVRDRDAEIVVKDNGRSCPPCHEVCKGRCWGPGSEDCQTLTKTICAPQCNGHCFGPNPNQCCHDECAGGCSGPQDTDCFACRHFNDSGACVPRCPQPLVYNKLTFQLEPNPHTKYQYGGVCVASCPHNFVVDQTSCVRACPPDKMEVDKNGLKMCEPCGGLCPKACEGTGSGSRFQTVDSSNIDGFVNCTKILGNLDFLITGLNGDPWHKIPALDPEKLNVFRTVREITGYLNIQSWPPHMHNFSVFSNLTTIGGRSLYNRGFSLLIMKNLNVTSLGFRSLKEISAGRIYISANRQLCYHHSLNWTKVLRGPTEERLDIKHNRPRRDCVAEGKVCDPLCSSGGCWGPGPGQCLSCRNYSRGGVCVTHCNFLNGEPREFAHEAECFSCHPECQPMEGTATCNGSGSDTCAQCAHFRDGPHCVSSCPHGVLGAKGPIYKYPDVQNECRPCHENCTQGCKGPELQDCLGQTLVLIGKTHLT

[8] = biological target: T5, PCSK9 (human, UniProt Q8NBP7 31-692, biotin on lysines (Sulfo-NHS-LC-biotin)); test: SPR; conditions: both partners purified
T5 construct: also called PCSK9FL; hPCSK9 FL
T5 sequence (Q8NBP7 31-692): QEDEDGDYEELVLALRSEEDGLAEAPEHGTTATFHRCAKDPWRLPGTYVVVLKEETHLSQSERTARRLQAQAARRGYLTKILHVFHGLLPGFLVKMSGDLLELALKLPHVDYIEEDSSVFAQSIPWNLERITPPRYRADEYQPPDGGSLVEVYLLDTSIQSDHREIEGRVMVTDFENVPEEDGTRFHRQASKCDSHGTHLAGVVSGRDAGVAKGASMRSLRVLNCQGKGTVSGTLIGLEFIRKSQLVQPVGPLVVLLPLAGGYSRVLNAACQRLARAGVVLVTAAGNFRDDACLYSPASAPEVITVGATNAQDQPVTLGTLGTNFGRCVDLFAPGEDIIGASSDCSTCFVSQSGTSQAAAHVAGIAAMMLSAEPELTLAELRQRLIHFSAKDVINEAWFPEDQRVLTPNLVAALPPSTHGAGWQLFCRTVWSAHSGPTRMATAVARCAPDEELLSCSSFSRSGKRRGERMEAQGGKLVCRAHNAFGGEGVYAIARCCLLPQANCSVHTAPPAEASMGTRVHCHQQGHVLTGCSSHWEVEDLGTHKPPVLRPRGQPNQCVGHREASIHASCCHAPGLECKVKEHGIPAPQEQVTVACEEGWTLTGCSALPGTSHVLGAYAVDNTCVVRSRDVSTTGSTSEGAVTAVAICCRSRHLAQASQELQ

[9] = biological target: T5, PCSK9; test: ELISA; conditions: one partner purified
[10] = biological target: T6, PCSK9ΔCRD (PCSK9 lacking the C-terminal Cys-rich domain CRD) (human, UniProt Q8NBP7 31-452, biotin on lysines (Sulfo-NHS-LC-biotin)); test: ELISA; conditions: one partner purified
T6 construct: also called PCSK9DCRD; PCSK9dCRDTEV
T6 sequence (Q8NBP7 31-452, stated change not applied): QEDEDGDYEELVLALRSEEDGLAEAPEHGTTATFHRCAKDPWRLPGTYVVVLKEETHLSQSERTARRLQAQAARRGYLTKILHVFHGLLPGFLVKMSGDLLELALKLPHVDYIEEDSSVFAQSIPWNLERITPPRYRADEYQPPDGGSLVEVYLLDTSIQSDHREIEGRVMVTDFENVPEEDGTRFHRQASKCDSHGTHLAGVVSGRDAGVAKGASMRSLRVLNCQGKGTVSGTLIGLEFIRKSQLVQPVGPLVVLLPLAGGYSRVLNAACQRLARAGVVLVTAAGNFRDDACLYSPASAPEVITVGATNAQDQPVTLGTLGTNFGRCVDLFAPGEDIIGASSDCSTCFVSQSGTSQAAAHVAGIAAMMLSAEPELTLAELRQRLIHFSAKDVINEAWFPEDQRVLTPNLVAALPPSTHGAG

[11] = biological target: Her3-Fc (UniProt P21860 20-643); test: ELISA; conditions: one partner purified
Sequence of Her3-Fc (P21860 20-643): as the sequence (P21860 20-643) above

B1: N2L-EET-29 (designed binder)
chain: GCGWTLAHCKQDSDCLAGCVCQPRWVCG
[1]
  Kd: 102 µM

B2: N2L-EET-29 displayed on M13 phage (designed binder)
chain: GCGWTLAHCKQDSDCLAGCVCQPRWVCG
[2]
  ELISA: 0.6
  s/n Ratio: 4.4

B3: HtrA1_CirA65 (designed binder)
chain: WIPCISAALGCSCKNKVCYIFSKHLCGESCV
[3]
  Kd: 2.7 µM

B4: N2L.EET31.43.75 (designed binder)
chain: GCIKSHLWCDPRKDCEAGCICEVWIQCG
[4]
  Kd: 0.41 µM

B5: Notch2NRR (Notch2 NRR domain) (domain or fragment)
chain: ATCLSQYCADKARDGVCDEACNSHACQWDGGDCSLTMENPWANCSSPLPCWDYINNQCDELCNTVECLFDNFECQGNSKTCKYDKYCADHFKDNHCDQGCNSEECGWDGLDCAADQPENLAEGTLVIVVLMPPEQLLQDARSFLRALGTLLHTNLRIKRDSQGELMVYPYYGEKSAAMKKQRMTRRSLPGEQEQEVAGSKVFLEIDNRQCVQDSDHCFKNTDAAAALLASHAIQGTLSYPLVSVVSESLTPERTQ
modifications: biotin on the N-terminal Avi tag (enzymatic)
notes: also called NRR protein; not shown: Avi tag, N-terminal, kept
[5]
  Kd: 9.4 µM
[6]
  Kd: 0.8 µM

B6: HtrA1_CnTx83 (designed binder)
chain: ECKGKGAKCSIQWSVYPWKVCCTGSCRSGKC
notes: Conotoxin-MVIIA scaffold
[3]
  Kd: 6.4 µM

B7: N2L.EET31.32.13 (designed binder)
chain: GCIKSHLWCPRDSDCLAGCVCEVWIQCG
[4]
  Kd: 35 µM

B8: Her3-Fc_ChTx2 (designed binder)
chain: VSCTTSKECWSVCQRLHNTSWLGSCMERFCKCVD
notes: Charybdotoxin scaffold
[7]
  Kd: 1.5 µM

B9: Her3-Fc_ChTx1 (designed binder)
chain: VSCTTSKECWSVCQRLHNTSWGEQCVTKFCKCEE
notes: Charybdotoxin scaffold
[7]
  Kd: > 10 µM

B10: N2L.EET03.10 (designed binder)
chain: GCGWTLRHCKQDSDCLAGCVCRPIWYCG
[4]
  Kd: 4.5 µM

B11: PCSK9FL_CBD2 (designed binder)
chain: GPTQSKYGMCGGIGYSGPTVCASGTTCQVLDPYTSQCLPGAS
[8]
  Kd: 3.6 µM

B12: PCSK9FL_CBD2 displayed on M13 phage (designed binder)
chain: GPTQSKYGMCGGIGYSGPTVCASGTTCQVLDPYTSQCLPGAS
[9]
  ELISA: 1.9
  s/n Ratio: 26.8

B13: HtrA1_EET76 (designed binder)
chain: GCHRPWWQLWGLCKQDSDCLAGCVCGPNGFCG
[3]
  Kd: 9.5 µM

B14: HtrA1_HwTx69 (designed binder)
chain: ACKGVFDACTWKNWRQSRSRECCPNAVCSDKHKWCKWKL
notes: Huwentoxin scaffold
[3]
  Kd: 3.7 µM

B15: N2L-EET-03 (designed binder)
chain: GCGWTLWHCKQDSDCLAGCVCEPIWWCG
[1]
  Kd: 43.7 µM

B16: N2L.EET31.43.24 (designed binder)
chain: GCIKSHLWCPKTSDCEAGCICEVWIQCG
[4]
  Kd: 3.5 µM

B17: N2L.EET31.32.70 (designed binder)
chain: GCIRSHLWCPPSASCLAGCVCEVWIQCG
[4]
  Kd: 1 µM

B18: N2L.EET31.43.43 (designed binder)
chain: GCIRSHVWCKQDSDCEAGCICEIWIQCG
[4]
  Kd: 3.5 µM

B19: PCSK9_CnTx2 (designed binder)
chain: ECKGKGAKCSFMTRQGVQTWCCTGSCRSGKC
notes: Conotoxin-MVIIA scaffold
[8]
  Kd: 2.8 µM

B20: PCSK9_CnTx2 displayed on M13 phage (designed binder)
chain: ECKGKGAKCSFMTRQGVQTWCCTGSCRSGKC
notes: Conotoxin-MVIIA scaffold
[10]
  ELISA: 1.7
  s/n Ratio: 25.9

B21: Her3-Fc_CBD1 (designed binder)
chain: GPTQSWQGRCGGIGYSGPTVCASGTTCQVLTPYWSECLPGAS
notes: also called Her3_CBD1
[7]
  Kd: 27 µM

B22: Her3-Fc_CBD1 displayed on M13 phage (designed binder)
chain: GPTQSWQGRCGGIGYSGPTVCASGTTCQVLTPYWSECLPGAS
[11]
  ELISA: 1.7
  s/n Ratio: 20.2

B23: HtrA1_CirA38 (designed binder)
chain: WIPCISAALGCSCKNKVCYFLYQICGESCV
[3]
  Kd: 2.5 µM
